Test results as given in the nanobody polyreactivity screen of Harvey et al. (2022).

Test: yeast display, Sf9 membrane polyspecificity reagent, FACS + sequencing; frameworks hold sequencing errors
Procedure, shortened: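 A synthetic nanobody library was expressed on Saccharomyces cerevisiae BJ5465 by galactose induction for 36–48 hours. The library was stained for 1 hour at 4 °C with 10% biotinylated, detergent-solubilized Sf9 membrane reagent and enriched with streptavidin microbeads before FACS. Low and high (top ~1%) gates were set on anti-HA fluorescence for expression and streptavidin fluorescence for reagent binding, and each polyreactivity label reflects the gate of origin.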

Row | Sequence | polyreactivity (PSR sort gate)
1 | QVQIVETGGGLVQAGGSLRISCAASGSTLIRNVMGWYRQAPGKERELVAAINTRGTTTYYADSVKGRFTISRDNAKNTVYLQMNSLKPEDTAVYYCAAYAYSAYSPDGQRSRYYYWGLGTQVTVSS | high polyreactivity
2 | QVQLVESGGGLVQAGGSLRLSCAASGSTFAIYAMGWYRPAPGKERELVAAITLRTDSTYYADSVKGRFTISRDNAKNTVYLQMNSLKPEDTAVYYCNTVAYMRRFDKWGMNYWGQGTQVTVSS | low polyreactivity
3 | QVQLVESGGGLVQAGGSLRLTCAASGSIFGFNAMGWYRQAPGKERELGAAISSGSTYYADSVKGRFTISRDNAKNTVYLQINSLKPEDTAVYYCNARSNRGRFEYWGQGTQVTESS | low polyreactivity
4 | QVQLVESGGGLVQAGGSLRLSCAASGRIFKRYAMGWYRQAPGKERELVAAITSSGGRTYYADSVKGRFTISRDNAKNTVYLQMNSLKPEDTAVYYCNVDSANRDGYWGQGTQVTVSS | high polyreactivity
5 | QVQLVESGGGLVQAGGSLRLSCAASGLIFYAYYMGWYRQAPGKERELVAAISYSGGSTYYADSVKGRFTISRDNAKNTVYLQMNSLKPEDTSVYYCAADDGISTYEYWGQGTQVTVSS | high polyreactivity
6 | QVQLVESGGGLVQAGGSLRLSCAASGITFDGNAMGWYRQAPGKERELVAGISGSGGGTYYADSVKGRFTISRDNAKNTVYLQMNSLKPEDTAVYYCAADTSTSHAYDYWGQGTQVTVSS | low polyreactivity
7 | QVQLVESGGGLVQAGGSLRLSCAASGRIFRYYAMGWYRQAPGKERELVAAITRGGSTNYADSVKGRFTISRDNAKNTVYLQMNSLKPEDTAVYYCAVRGGYTWPTYNYWGQGTQVTVSS | high polyreactivity
8 | QVQLVESGGSLVQEGGSLRLSCAASGRTYNVMGWDRQAPGKERELVAAITWGGGSTHYADSVKGRFTISRDNAKNTVYVQMNSLKPEDTAVYYCAADLLYKSTRVDYWGQGTQVTVSS | low polyreactivity
9 | QVQLVDSGGGLVQAGGSLRLSCAASGFTFTRYAMGWYRQAPGKERELVADITRGGSTNYADSVKARFTISRDNAKNTVYLQMNSLKPEDTAVYYCNAGAITNYDYCGQGTQVTVSS | high polyreactivity
10 | QVQLVESGGGLVQAGGSLRLSCAASGRILLYNAMGWYRQAPGKERELVAAISRSGGSTYYADSVKGRFTISRDNAKNTVYLQMNSLKPEDTAVDYCAAQHGYTRYYYWGQGTQVTVSS | high polyreactivity
11 | QVQLVESRGGLVQAGGSHRLSCAASGSIFGYYAMGWYRQAPGNERELVAAIRSTGSTNYADSVKGRFTISRDNAQNSVYLQMNSLKPVDTAVYYCAAGYITWGSGNWVVTPYDYWGQGTQVTVSS | high polyreactivity
12 | QVQLVESGGGLVQAGGSLRLSCAASGSLFIANAMGWYRQAPGKERELVAAISWSGGRTYYADSVKGRFTISRDNAKNTVYLQMNSLKPEDTAVYYCAAEWEFYYEYDYWGQGTQVTVSS | high polyreactivity
13 | QVQLVESGGGLVQAGGSLRLSCAASGRIFYNYAMGWYRPAPGKDRVLVAAISVSGGSTYYADSEKGRFTISRDNAKNTVYLQMNSLKPEDTAVYYCAARRDRGYTREYWGQGTQVTVST | high polyreactivity
14 | QVQLVESGGGLVQAGGSLRLSCAASGYTFQYNSMGWYRQAHGKERELVATISNRGTSTYYADSVKGRFTISRDNAKKTVYLQMNSLKPEDTAVYYCAKSRWSLYSSGVWSRRHFYYWGHGTQVTVSS | high polyreactivity
15 | QVQLVESGGGLVQAGGSLRLSCAASGIIFYPYAMGWYRQEPGKERYLVASISSGGDTNYADSVKGRFTISRDNAKNTVYLQMNSLKPEDTAVYYCAARVRVQYWWEYYYWGQGTQVTVSS | high polyreactivity
16 | QVQLVESGGGLVQAGGSLRLSCAASGSTFYIYGMGWYRQAPGKERELVAAISSSGGRTNYADSVKGRFTISRDNAKNTVYLQMNSLKPEDTAVYYCAARRWQGYAGWYDYWGQGTQVTVSS | high polyreactivity
17 | QVHLVESGGGLVQAGGSLRLSCAASGSTIVDYHMAWYRQAPGKERELVASISSSGGSTYYADSVKGRFTISRDNAKNTVYLQMNSLKPEDTAVYYCAADTWGFWYWGPLFSKYGYWGQGTQVTVSS | low polyreactivity
18 | QVQLVESGGGLVQAGGSLRLSCAASGSIFPPYTMGWYRQAPGKERELVAAISWGGGSTYYADSVKGRFTISRDNAKNTVYLQMNSLKPEDTAVYYCAAGRYYRGYYWGQGTQVTVSS | high polyreactivity
19 | QVQLVESGGGLVQAGGSLRLSCAASGIIFHYYAMGWYRQAPVKERELVAVITSGGSTNYADSVKGRFTISRDNAKNTVYLQMNSLKPEDTAVYYCAADPIRDSWWQYFQDGREYDYWGQGTQVTVSS | low polyreactivity
20 | QVQLVESGGGLVQAGRSLRLICAASGRISVFYTMGWYRQAPGKERELVAVIRTSGGRTNYADSVKGRFTISRDNAKNTVYLQMNSLKPEDTAVYYCAARVVRYGFKYYYWGQGTQVTVSS | low polyreactivity
21 | QVQLVESGGGLVQAGGSLRLSCAASGSIFYSYAMGWYRQAPGKERELVAAISWDASTYYADSVKGRFTISRDNAKNTVYLQMNSLKPEDTAVYFCNADIPYYFVYDAYDYWGQGTQVTVSS | low polyreactivity
22 | QVQLVESGGGLVQAGGSLRLSCAASGITFGRKTMGWYRQAPGKERELLAAIDSGGNTYADSVKGRFTISRDNAKNTDYLEMNSLKPEDTAVYYCAVDGGEFYSYGYWGLGTQVTVSS | low polyreactivity

Row | Sequence | polyreactivity (PSR sort gate)
23 | QVQLVESGGGLVQAGGSLRLSCAASGSTFFLYAMGWYRQAPGKERELVAVITWRGGRTYYADSVKGRFTISRDNAKNTVYLQMNSMKPEDTAVYYCAAEYYWPVKYYYWGQGTQVTVSS | high polyreactivity
24 | QVQLVESGGGLVQAGGSLRLSCAASGRIFYHNAMGWYRQAPGKERELVAAISWSGGNTYYADSVKGRFTISRDNAKNTVYLQMNSLKPEDTAVYYCNRYWYRDRLWLYDYWGQGTQVTVSS | high polyreactivity
25 | QVQLVESGGGLVQAGGSLRLSCAASGSIFSSNAMGWYIQAPGKERELVAAITYSGGSTYYADSVKGRFTISRDNAKNTVYLQMNSLKPEDTAVYYCAADNGNWYDGYSYDYWGQGTQVTVSS | low polyreactivity
26 | QVKLVESGGGLVQAGGSLRLSCAASGRIFQPYAMGWYRQAPGKERELVADITYRDGSTYFADSVKGRFTISRDNAKNTVYLQMNSLKPEDTAVYYCNADGEYAKDDWFHWYDYWGQGTQVTVSS | high polyreactivity
27 | QVQLVESGGGLVQAGGSLRLSCAASGSIFPSYAMGWYRQAPGKERELVATIGRGGTTNYADSVKGRFTISRDNAKNTVYLQMNSLKPEDTEVYYCNAERIWRYKYGYDYWGQGTQVTVSS | high polyreactivity
28 | QVQLVESGGGLVQAGGSLRLSCAASGSTFFIYAMGWYRQAPGKERELVAAISGSGGTTYYADSVKGRFTISRDNAKNTVYLQMNSLKPEDTAVYYCNKDYYPGSYDYWGQGTQVTVSS | low polyreactivity
29 | QVQLVESGGGLVQAGGSLRLTCAASGSTFKQNVMGWYRQAPGKERELVAAITSGGSTNYADSVKGRFTISRDNAKNTVYLQMNSLKPEDTAVYYCNKDTSGIYLDDYWGQGTQVTVSS | low polyreactivity
30 | QFQLVESGGGLVQAGGSLRLSCAASGRTLSSYDMGWYRQAPGKERELVAAISRGGSTYYADSVKGRFTISRDNAKNTVYLQMNSLKPEDTAVYYCAASFYGGYWGYDYWGQGTQVTVSS | high polyreactivity
31 | QVQLVESGGGLVQAGGSLRLSCAASGSIFRIYAMGWYRQAPGKERELVAGISKSGGSTYYADSVKGRFTISRDNAKNTVYLQMNSLKPEDTAVYYCAAGYYYFWTYDYWGQGTQVTVSS | low polyreactivity
32 | QVQLVESGGGLVQAGGSLRLRCAASGFTFYRKAMGWYRHAHGKERELVAAITRGGSTTYADSVKGRFTISRDNAKNTVYLQMNSLKPEDTAVYYCAVPQYLYLQAGHGYRYYYWGQGSQVTVSS | high polyreactivity
33 | QVQLVESGGGLVQAGGSLRLSCAASGSTFSKNAMGWYREAPGKERELVAAISGSGGSTYYADSVKGRFTISRDNAKKTVYLQMNSLKPEESAVYYCAARYSGRRYGYWGQGTQVTVSS | high polyreactivity
34 | QVQLVESGGGLVQAGGSLRLSCAASGFTFPYYAMGWYRQAPGKERELVAAISQGGASTRYADSVKGRFTISRDNAKNTVYLQMNSLKPEDTAVYYCAAKSRHFWMDYWGQGTQVTVSS | high polyreactivity
35 | QVQLVESGGGLVQAGGSLRLSCAASGSTFQINAMGWYRQAPGKERELVAAIDGGGDTYYADSVKGRFTISRDNAKYTVYLQMNSMKPEDTAVYYCAAERRIYYQDFNFWGQGTQVTVSS | low polyreactivity
36 | QVQLVESGGGLVQAGGSLRLSCAASGSIFLVYSMGWYRQAPGKERELVAGITSDDSTNYADSVKGRFTISRDNAKNTVYLQMNSLKPEDTAVYYCAKDSLVWYIVDLGYWGQGTQVTVSS | low polyreactivity
37 | QVQLVDSGGGIVQAGGSLRLSCAASGSTFYSYAMGWYTQAPGKERELVAAINRDGVSTYYSDSVKGRFTISRYNAKNTVYLLMNSLKPEDTAVYYCNARHQTLRSYRYDYWGQGTQVSVSS | low polyreactivity
38 | QVQLVESGGGLVQAGGSLRLSCAASGSIINIYAMGWYRQAPGKERELVATITGIADSTYYADSVKGRFTISRDNAQNSVYLQMNSLKPEETAVYFCAADKYVAEYDYWGQGSQVTVSS | low polyreactivity
39 | PDQLVESGGGLVQAGGSLRLSCAASGRTFSGYGMGWYRQAPGKERELVAAFSSSGDSTYYADSVKGRFSIARDNPKNTVYVQMNSLKPDDPAVYYCNDYRRSYNGFRYYYWGQGTQVTVSS | low polyreactivity
40 | QVQLVESGVGLVQAGGSLLLSCAASGRTFSYNPMGSYRQAPGKERELVALISSGGSTNYADSVKGRFTISRDNAKNTVYLQMNSLKPEDTALYYCNAGSYVWEEDYWGQGTQVTVSS | high polyreactivity
41 | QVQLVESGGGLVQAGGSLRLSCAASGRTIDHYAMGWYRQAPGKERELVAAISTTGGSTYYADSVKGRFTISRDNAKNTVYLQMNSLKPEDTAVYYCAAQLGWWGSGYWGQGTQVTVSS | high polyreactivity
42 | QVQLVESGGGLVQAGGSLRLSCAASGSTLASYAMGWYSQAPGKERELVAVIDSGGSTYYADSVKGRFTISRDNAKNSVYVQMNSLKPEDTAVYDCAAGWEFSGVLTLFGYWGQGTQVTVSS | low polyreactivity
43 | QVQLVESGGGLVQAGGSLRLSCAASGYTFRYYAMGWYRQAPGKERELVAAITWSGGSTYYADSVKGRFTISRDNAKNTVYLQMNSLKPEDTAVYYCATDSARVGNFPDPQFDYWGQGTQVTVSS | low polyreactivity
